Experimental data published in the supplement of paper PMC12764529.
± gives the half width of the 95% confidence interval.

Legend:
[1] = folding stability dG unfold from trypsin proteolysis; higher = more stable
Method in brief: (§1)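 How resistant each design was to proteolysis was captured as K50, inferred by Bayesian fitting of sequencing counts. Unfolding free energy was then derived relative to a sequence-predicted unfolded-state K50 and a shared folded-state K50, per protease or combined. Digestion used trypsin and chymotrypsin at 11 threefold-diluted concentrations plus a no-protease condition, on mini-proteins under 80 residues without cysteine in a PA-tagged cDNA display construct. Designs were kept only when AlphaFold2 dimer inter-PAE was above 15.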

[2] = folding stability dG unfold from chymotrypsin proteolysis; higher = more stable
Method in brief: as §1

[3] = folding stability dG unfold (combined trypsin and chymotrypsin); higher = more stable
Method in brief: as §1

## SAGGSMAEPGPMNMTLSFDGIEKEFSVEITVRKRPDGTEVLELRLPDGVPLTLPAAEAAKIVDMSGSAGGSA [r2_297_JUSTAS]
[1]
  folding stability dG unfold: 0.549 ± 0.023 kcal/mol
[2]
  folding stability dG unfold: 0.879 ± 0.036 kcal/mol
[3]
  folding stability dG unfold: 0.764 ± 0.051 kcal/mol

## SAGGSMEEEFAARGATVTIDPEKGVITVTFYEEVTQPDGTPVLRRKGTLTIEVPGNDPSQALAKALEESAGG [r13_924_JUSTAS]
[1]
  folding stability dG unfold: 1.41 ± 0.032 kcal/mol
[2]
  folding stability dG unfold: 2.1 ± 0.088 kcal/mol
[3]
  folding stability dG unfold: 1.96 ± 0.12 kcal/mol

## SAGGSMIEVERDPNDPNRYRARLPVIEENPPEPKLVYVDVYVDPENGLVYARAVTEDGGEAEFRFESAGGSA [r2_428_TrMRF]
[1]
  folding stability dG unfold: 0.448 ± 0.12 kcal/mol
[2]
  folding stability dG unfold: 1.03 ± 0.16 kcal/mol
[3]
  folding stability dG unfold: 0.786 ± 0.17 kcal/mol

## SAGGSMIPLDNIDTIEIYENPKEGKYEAKIYFPSNGKVYVFPEGLLPEIIESTPKIKEIKVIPVPESAGGSA [r2_159_TrMRF]
[1]
  folding stability dG unfold: -1.19 ± 0.71 kcal/mol
[2]
  folding stability dG unfold: 0.362 ± 0.26 kcal/mol
[3]
  folding stability dG unfold: -0.0295 ± 0.25 kcal/mol

## SAGGSMITFTVTPDATVEFPDGVTVTLIPGEGKWVATAGEKEIEAPYTPLPDDTYVVTLELPEGIAASAGGS [r16_245_JUSTAS]
[1]
  folding stability dG unfold: 0.337 ± 0.046 kcal/mol
[2]
  folding stability dG unfold: -0.101 ± 0.27 kcal/mol
[3]
  folding stability dG unfold: 0.369 ± 0.13 kcal/mol

## SAGGSMITLTFPAPREVAVPAIEAAAEKHGVTILSVEFDPATGRLTVTVDSSLPEEEVRAMVAAVLASAGGS [r8_338_JUSTAS]
[1]
  folding stability dG unfold: 4.75 ± 0.24 kcal/mol
[2]
  folding stability dG unfold: 4.47 ± 0.058 kcal/mol
[3]
  folding stability dG unfold: 4.57 ± 0.075 kcal/mol

## SAGGSMIVKVTVRVDGKEYERTVEVESLEEALELELPELPEGAEVRIEVVDPETGELIETVTLRVPSAGGSA [r2_390_TrROS_Hall]
[1]
  folding stability dG unfold: 2.3 ± 0.13 kcal/mol
[2]
  folding stability dG unfold: 2.56 ± 0.052 kcal/mol
[3]
  folding stability dG unfold: 2.46 ± 0.15 kcal/mol

## SAGGSMKIEKLPDGKTVVIETVDEETNTITRTRFKLDKDGKLVEMEVETITLPAPPPEEVDEDGKESAGGSA [r2_375_TrROS_Hall]
[1]
  folding stability dG unfold: 1.92 ± 0.098 kcal/mol
[2]
  folding stability dG unfold: 2.3 ± 0.092 kcal/mol
[3]
  folding stability dG unfold: 2.17 ± 0.16 kcal/mol

## SAGGSMKPAKKITFTFPDGRKAEIFFYPEEDTIELRIYFPETGTFVEIPVKSPEDLIETLKKLLAESAGGSA [r2_70_TrMRF]
[1]
  folding stability dG unfold: 4.02 ± 0.16 kcal/mol
[2]
  folding stability dG unfold: 3.7 ± 0.14 kcal/mol
[3]
  folding stability dG unfold: 3.75 ± 0.16 kcal/mol

## SAGGSMLFLRVRIEVRPPTAEDLAEGKEVKEVEILVEFDSVEELKEALEKLPPNAKVEVELVELEESAGGSA [r2_25_TrROS_Hall]
[1]
  folding stability dG unfold: 2.36 ± 0.26 kcal/mol
[2]
  folding stability dG unfold: 2.9 ± 0.17 kcal/mol
[3]
  folding stability dG unfold: 2.83 ± 0.53 kcal/mol

## SAGGSMLIKIKLPKNNPLRDKIVEKLKKSPYVKDVKVKRLKELPNYEIFLIEVDGDPKVADEIKKLASAGGS [r16_394_TrMRF]
[1]
  folding stability dG unfold: 2.16 ± 0.09 kcal/mol
[2]
  folding stability dG unfold: 3.08 ± 0.045 kcal/mol
[3]
  folding stability dG unfold: 2.83 ± 0.15 kcal/mol

## SAGGSMPLDVSSELLEESTDPSDPNRRTTLERRFSPDGTVTLVTRTFDPATGTTEVQETTLPPGLPSAGGSA [r2_73_JUSTAS]
[1]
  folding stability dG unfold: 0.529 ± 0.06 kcal/mol
[2]
  folding stability dG unfold: 1.49 ± 0.14 kcal/mol
[3]
  folding stability dG unfold: 1.14 ± 0.099 kcal/mol

## SAGGSMPLTLEIKAPASTPASEIVATLKKYGPVTVTLGDGRTYNIPRDKPPNLKGLPLAPDAVLTLVVSAGG [r13_399_JUSTAS]
[1]
  folding stability dG unfold: -0.08 ± 0.1 kcal/mol
[2]
  folding stability dG unfold: -0.742 ± 0.4 kcal/mol
[3]
  folding stability dG unfold: -0.263 ± 0.091 kcal/mol

## SAGGSMPTLKPDEILTLSSTTEPLPSGGLRGRTVTLKKIPGTGKFVTITKYSYQPPDGPITSATEILLSAGG [r13_263_JUSTAS]
[1]
  folding stability dG unfold: -0.538 ± 0.48 kcal/mol
[2]
  folding stability dG unfold: 0.585 ± 0.26 kcal/mol
[3]
  folding stability dG unfold: 0.238 ± 0.15 kcal/mol

## SAGGSMPYKTLEESESEIYDPSNGNVKYKVKTETILLPDGTILVKETIYDPETGTTETKTYTIPKGSAGGSA [r2_13_JUSTAS]
[1]
  folding stability dG unfold: 1.54 ± 0.14 kcal/mol
[2]
  folding stability dG unfold: 1.82 ± 0.13 kcal/mol
[3]
  folding stability dG unfold: 1.79 ± 0.1 kcal/mol

## SAGGSMRLVKITVTTLEPSAEAIAAGAPTPVTLIEREVSSEEEVEEFIKSLPPNVEVSVERLPPPASAGGSA [r2_25_JUSTAS]
[1]
  folding stability dG unfold: 1.66 ± 0.11 kcal/mol
[2]
  folding stability dG unfold: 2.16 ± 0.03 kcal/mol
[3]
  folding stability dG unfold: 2.04 ± 0.12 kcal/mol

## SAGGSMSLEGVSTVSEEKFPEKPTTLVPLTYPDGTTVEANRTLDPVTGKWTLPVTTPDGTVVVVDESAGGSA [r2_490_JUSTAS]
[1]
  folding stability dG unfold: 1.34 ± 0.048 kcal/mol
[2]
  folding stability dG unfold: 0.487 ± 0.073 kcal/mol
[3]
  folding stability dG unfold: 0.977 ± 0.089 kcal/mol

## SAGGSMSPWHWARHIAKKLRKKFPPGKKVRIKIEYDDGPVEFEIPPGEWIPIPSNAPIEILNIKVKSAGGSA [r2_391_TrROS]
[1]
  folding stability dG unfold: 1.97 ± 0.034 kcal/mol
[2]
  folding stability dG unfold: 2.36 ± 0.11 kcal/mol
[3]
  folding stability dG unfold: 2.25 ± 0.11 kcal/mol

## SAGGSMTIKINGAEITDIEVRDDGTIRIKVRVTNENGEEVEVTLEIRIEPAPPVEVVHPDDPEALESAGGSA [r2_368_TrROS_Hall]
[1]
  folding stability dG unfold: 3.09 ± 0.16 kcal/mol
[2]
  folding stability dG unfold: 2.45 ± 0.066 kcal/mol
[3]
  folding stability dG unfold: 2.73 ± 0.097 kcal/mol

## SAGGSMTISLDETIDVPEDVGVTFTFADDTVATAYFDPSEGKVRVVVYDPNKPGTLLGEFTLPVLPSAGGSA [r2_266_TrMRF]
[1]
  folding stability dG unfold: 0.976 ± 0.017 kcal/mol
[2]
  folding stability dG unfold: 1.41 ± 0.07 kcal/mol
[3]
  folding stability dG unfold: 1.29 ± 0.11 kcal/mol

## SAGGSMTIVVETPEEVEKAIKALEDELKKKGIKKGDKIKKIKVEKNENGKLTVTIEVDGKKIKIEVSAGGSA [r2_120_TrROS_Hall]
[1]
  folding stability dG unfold: 0.37 ± 0.15 kcal/mol
[2]
  folding stability dG unfold: 2.02 ± 0.25 kcal/mol
[3]
  folding stability dG unfold: 1.63 ± 0.3 kcal/mol

## SAGGSMTLEELKNMTVEELRELLGEDAEVTVDEETGTITIRVPGKEVTIEVDEETGEVKIVEVKPVSAGGSA [r2_470_TrROS_Hall]
[1]
  folding stability dG unfold: 3.31 ± 0.24 kcal/mol
[2]
  folding stability dG unfold: 2.27 ± 0.13 kcal/mol
[3]
  folding stability dG unfold: 2.89 ± 0.26 kcal/mol

## SAGGSMTTPPTGEVQVFIDRKTDKWTIRIVDPNAPPTTEEVESEEEAEKVIAELEAKGYKVDTVEPLPSAGG [r13_727_JUSTAS]
[1]
  folding stability dG unfold: 0.658 ± 0.16 kcal/mol
[2]
  folding stability dG unfold: 1.14 ± 0.5 kcal/mol
[3]
  folding stability dG unfold: 0.913 ± 0.29 kcal/mol

## SAGGSMVIPTKVSSLEEAKQVAEEILKKLGRPLTLDDVSFDPEKFKAELKPDTPVVVKVKDPSGVTLGASAG [r5_503_JUSTAS]
[1]
  folding stability dG unfold: 0.457 ± 0.032 kcal/mol
[2]
  folding stability dG unfold: 0.458 ± 0.15 kcal/mol
[3]
  folding stability dG unfold: 0.409 ± 0.16 kcal/mol

## SAGGSMVKVEVHYDPERDLVLVTVEAPDDPELVDEFVERMKKLGAKRVEVFRFPEDGKVRILVEIGSAGGSA [r2_358_TrMRF]
[1]
  folding stability dG unfold: 3.08 ± 0.11 kcal/mol
[2]
  folding stability dG unfold: 4.68 ± 0.081 kcal/mol
[3]
  folding stability dG unfold: 4.36 ± 0.1 kcal/mol

## SAGGSNVEVERHPDGHMTFTFPDEDGKDVKITIHMHPDGMYMIRVPGNNQPIYFPPGQSIEDLLKLSAGGSA [r2_338_TrROS]
[1]
  folding stability dG unfold: 2.2 ± 0.069 kcal/mol
[2]
  folding stability dG unfold: 2.88 ± 0.032 kcal/mol
[3]
  folding stability dG unfold: 2.63 ± 0.098 kcal/mol

## SAGGSPDEAVPLPVPAKITLPGGAEFTVEEAVVLPNGEVLVKATLISPYPDPREAPFVVPLELLDISSAGGS [r16_498_TrMRF]
[1]
  folding stability dG unfold: -0.338 ± 0.054 kcal/mol
[2]
  folding stability dG unfold: 0.395 ± 0.03 kcal/mol
[3]
  folding stability dG unfold: 0.235 ± 0.066 kcal/mol

## SAGGSPKAREERFEKTLPDGTVVPVTLTRLPDGTVRVETTTYTYNSPEPVASTSTTTLPEAEVAAALSAGGS [r16_470_JUSTAS]
[1]
  folding stability dG unfold: 0.631 ± 0.099 kcal/mol
[2]
  folding stability dG unfold: 0.684 ± 0.11 kcal/mol
[3]
  folding stability dG unfold: 0.686 ± 0.086 kcal/mol

## SAGGSPKPVPVTITSVTSTSVEVYLPSTGATFTFNLNEEKTLTLPDGSKIYFTFNSDGSVTATVIEYGSAGG [r13_352_TrMRF]
[1]
  folding stability dG unfold: 5.03 ± 0.73 kcal/mol
[2]
  folding stability dG unfold: 4.88 ± 0.051 kcal/mol
[3]
  folding stability dG unfold: 4.83 ± 0.12 kcal/mol

## SAGGSPLVLTSEVEKKFENSPDKTVEKYKIKVTVYDPKTGKKLKEIELEKTVEKGGNEKIEEPIILSAGGSA [r2_271_JUSTAS]
[1]
  folding stability dG unfold: 0.146 ± 0.084 kcal/mol
[2]
  folding stability dG unfold: 0.487 ± 0.21 kcal/mol
[3]
  folding stability dG unfold: 0.419 ± 0.16 kcal/mol

## SAGGSPNYKINVEVEEYEPNPDNGKPYYRARIKIEWYNPENGREQTREIDFWMSPDKAEKFLKDILSAGGSA [r2_357_TrROS]
[1]
  folding stability dG unfold: 1.89 ± 0.059 kcal/mol
[2]
  folding stability dG unfold: 2.56 ± 0.13 kcal/mol
[3]
  folding stability dG unfold: 2.22 ± 0.17 kcal/mol
